# Measured values published in patent publication US20210130454A1 (BLUEFIN BIOMEDICINE, published 2021).
# T1: human SEZ6 on cells (293-SEZ6) (human, UniProt Q53EL9 20-994)
# T1 construct: whole, on cells; also called Seizure Protein 6 Homolog
# T1 sequence (looked up): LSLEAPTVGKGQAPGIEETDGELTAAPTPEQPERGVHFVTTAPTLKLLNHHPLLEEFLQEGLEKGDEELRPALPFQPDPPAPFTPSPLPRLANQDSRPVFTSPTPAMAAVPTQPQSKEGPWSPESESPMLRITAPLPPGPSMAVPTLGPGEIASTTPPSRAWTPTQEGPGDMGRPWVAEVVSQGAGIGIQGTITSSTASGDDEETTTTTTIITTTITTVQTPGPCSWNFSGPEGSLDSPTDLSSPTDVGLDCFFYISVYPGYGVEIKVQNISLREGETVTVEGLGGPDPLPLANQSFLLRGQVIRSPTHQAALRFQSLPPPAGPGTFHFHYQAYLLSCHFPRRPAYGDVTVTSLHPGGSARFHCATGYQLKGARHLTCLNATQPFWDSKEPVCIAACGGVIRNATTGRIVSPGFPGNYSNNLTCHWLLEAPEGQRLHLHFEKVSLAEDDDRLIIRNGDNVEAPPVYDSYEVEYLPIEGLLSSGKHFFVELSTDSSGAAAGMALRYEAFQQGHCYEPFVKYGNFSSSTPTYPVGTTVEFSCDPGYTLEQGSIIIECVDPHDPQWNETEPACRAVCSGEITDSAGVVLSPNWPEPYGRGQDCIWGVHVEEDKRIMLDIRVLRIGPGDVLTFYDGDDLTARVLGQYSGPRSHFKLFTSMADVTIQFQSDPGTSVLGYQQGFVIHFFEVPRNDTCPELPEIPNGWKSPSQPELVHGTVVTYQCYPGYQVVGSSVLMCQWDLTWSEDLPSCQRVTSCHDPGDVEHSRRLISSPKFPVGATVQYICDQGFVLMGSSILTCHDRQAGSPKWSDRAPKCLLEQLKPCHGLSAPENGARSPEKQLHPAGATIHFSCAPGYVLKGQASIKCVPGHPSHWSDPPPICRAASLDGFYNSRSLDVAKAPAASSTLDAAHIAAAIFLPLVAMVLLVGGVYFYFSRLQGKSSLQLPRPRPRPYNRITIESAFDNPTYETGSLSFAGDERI
# T2: human SEZ6L on cells (293-SEZ6L) (human, UniProt Q9BYH1 29-1024)
# T2 construct: whole, on cells; also called Seizure 6-like Protein
# T2 sequence (looked up): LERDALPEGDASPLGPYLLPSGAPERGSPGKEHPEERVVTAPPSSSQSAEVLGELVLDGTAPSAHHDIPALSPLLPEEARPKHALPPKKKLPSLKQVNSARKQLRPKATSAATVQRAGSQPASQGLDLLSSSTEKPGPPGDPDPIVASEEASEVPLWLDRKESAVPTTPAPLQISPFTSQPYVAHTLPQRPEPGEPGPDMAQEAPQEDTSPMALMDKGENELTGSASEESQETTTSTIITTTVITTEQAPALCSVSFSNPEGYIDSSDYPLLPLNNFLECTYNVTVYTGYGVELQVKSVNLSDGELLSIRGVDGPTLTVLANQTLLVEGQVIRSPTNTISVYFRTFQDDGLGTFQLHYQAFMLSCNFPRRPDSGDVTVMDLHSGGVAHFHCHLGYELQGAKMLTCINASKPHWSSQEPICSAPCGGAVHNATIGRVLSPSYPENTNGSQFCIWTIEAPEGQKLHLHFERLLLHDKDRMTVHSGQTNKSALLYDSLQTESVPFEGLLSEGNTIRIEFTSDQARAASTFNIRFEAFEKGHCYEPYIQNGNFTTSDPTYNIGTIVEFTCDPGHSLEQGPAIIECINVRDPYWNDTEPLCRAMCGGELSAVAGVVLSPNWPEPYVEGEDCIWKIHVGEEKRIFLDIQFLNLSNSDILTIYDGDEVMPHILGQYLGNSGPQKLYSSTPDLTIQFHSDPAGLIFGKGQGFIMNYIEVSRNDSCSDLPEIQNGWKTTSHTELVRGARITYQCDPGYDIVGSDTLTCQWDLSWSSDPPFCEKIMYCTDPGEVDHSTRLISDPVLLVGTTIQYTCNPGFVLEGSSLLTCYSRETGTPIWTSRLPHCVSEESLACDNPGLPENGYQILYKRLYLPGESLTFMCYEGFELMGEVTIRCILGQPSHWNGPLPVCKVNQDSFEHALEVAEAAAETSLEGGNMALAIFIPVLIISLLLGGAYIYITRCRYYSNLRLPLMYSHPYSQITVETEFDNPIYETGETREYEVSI
# Columns and labels:
# [1] = biological target: T3, human SEZ6L2 on cells (293-SEZ6L2, HEK 293 cells transfected with human SEZ6L2, and SEZ6L2-expressing tumor … (human, UniProt Q6UXD5 28-910)); experiment: immunofluorescence and flow cytometry on HEK 293 cells transfected with human SEZ6L2 against untransfected cells
# T3 construct: Tumor cell lines express the endogenous protein; also called hSEZ6L2
# T3 sequence (Q6UXD5 28-910): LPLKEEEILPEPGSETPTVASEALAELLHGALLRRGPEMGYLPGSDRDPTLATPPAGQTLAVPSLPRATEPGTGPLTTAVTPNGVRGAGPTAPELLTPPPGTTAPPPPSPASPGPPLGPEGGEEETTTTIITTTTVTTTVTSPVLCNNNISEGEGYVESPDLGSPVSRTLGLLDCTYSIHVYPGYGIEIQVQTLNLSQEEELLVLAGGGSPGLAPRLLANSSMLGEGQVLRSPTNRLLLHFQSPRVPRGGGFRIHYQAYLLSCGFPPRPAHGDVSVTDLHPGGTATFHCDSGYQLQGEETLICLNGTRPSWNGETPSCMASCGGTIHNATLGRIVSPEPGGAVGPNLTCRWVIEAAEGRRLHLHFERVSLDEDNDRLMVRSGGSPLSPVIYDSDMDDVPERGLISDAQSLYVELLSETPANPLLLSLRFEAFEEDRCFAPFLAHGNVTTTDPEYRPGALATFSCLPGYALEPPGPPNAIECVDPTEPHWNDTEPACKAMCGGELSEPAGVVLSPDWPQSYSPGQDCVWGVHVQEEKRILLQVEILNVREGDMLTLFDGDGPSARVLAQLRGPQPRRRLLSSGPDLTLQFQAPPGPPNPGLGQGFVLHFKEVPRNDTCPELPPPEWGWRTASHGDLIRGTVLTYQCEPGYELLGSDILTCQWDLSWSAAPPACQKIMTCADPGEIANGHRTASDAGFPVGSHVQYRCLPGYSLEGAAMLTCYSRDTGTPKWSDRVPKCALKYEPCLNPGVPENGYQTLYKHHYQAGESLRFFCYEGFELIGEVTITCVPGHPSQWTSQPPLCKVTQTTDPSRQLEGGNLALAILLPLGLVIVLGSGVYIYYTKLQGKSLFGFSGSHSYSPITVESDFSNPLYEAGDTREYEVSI
# [2] = biological target: T1, human SEZ6 on cells (293-SEZ6); experiment: flow cytometry on live 293-SEZ6 cells, Alexa Fluor 488 anti-human IgG secondary [continued), panel H]
# [3] = biological target: T3, human SEZ6L2 on cells (293-SEZ6L2, HEK …); experiment: flow cytometry on live 293-SEZ6L2 cells, primary antibody 1 ug/ml, Alexa Fluor 488 anti-human IgG secondary [continued), panel H]
# [4] = biological target: T2, human SEZ6L on cells (293-SEZ6L); experiment: flow cytometry on live 293-SEZ6L cells, Alexa Fluor 488 anti-human IgG secondary [continued), panel H]
# [5] = biological target: T3, human SEZ6L2 on cells (293-SEZ6L2, HEK …); experiment: flow cytometry on live 293-SEZ6L2 cells, primary antibody 1 ug/ml, Alexa Fluor 488 anti-human IgG secondary [continued), panel G]
# [6] = biological target: T1, human SEZ6 on cells (293-SEZ6); experiment: flow cytometry on live 293-SEZ6 cells, Alexa Fluor 488 anti-human IgG secondary [continued), panel G]
# [7] = biological target: T2, human SEZ6L on cells (293-SEZ6L); experiment: flow cytometry on live 293-SEZ6L cells, Alexa Fluor 488 anti-human IgG secondary [continued), panel G]
# [8] = biological target: T1, human SEZ6 on cells (293-SEZ6); experiment: flow cytometry on live 293-SEZ6 cells, Alexa Fluor 488 anti-human IgG secondary [continued), panel F]
# [9] = biological target: T3, human SEZ6L2 on cells (293-SEZ6L2, HEK …); experiment: flow cytometry on live 293-SEZ6L2 cells, primary antibody 1 ug/ml, Alexa Fluor 488 anti-human IgG secondary [continued), panel F]
# [10] = biological target: T2, human SEZ6L on cells (293-SEZ6L); experiment: flow cytometry on live 293-SEZ6L cells, Alexa Fluor 488 anti-human IgG secondary [continued), panel F]
# [11] = biological target: T2, human SEZ6L on cells (293-SEZ6L); experiment: flow cytometry on live 293-SEZ6L cells, Alexa Fluor 488 anti-human IgG secondary [continued), panel I]
# [12] = biological target: T1, human SEZ6 on cells (293-SEZ6); experiment: flow cytometry on live 293-SEZ6 cells, Alexa Fluor 488 anti-human IgG secondary [continued), panel I]
# [13] = biological target: T4, recombinant human SEZ6L2 (extracellular portion of human SEZ6L2 fused to six C-terminal histidine-tag repeats) (human, UniProt Q6UXD5 28-844); experiment: BLI (ForteBio Octet Red96), antibody on Protein A biosensors, recombinant target protein in solution
# T4 construct: also called SEZ6L2-his; recombinant SEZ6L2
# T4 sequence (Q6UXD5 other isoform, or with tags, fused parts or gaps): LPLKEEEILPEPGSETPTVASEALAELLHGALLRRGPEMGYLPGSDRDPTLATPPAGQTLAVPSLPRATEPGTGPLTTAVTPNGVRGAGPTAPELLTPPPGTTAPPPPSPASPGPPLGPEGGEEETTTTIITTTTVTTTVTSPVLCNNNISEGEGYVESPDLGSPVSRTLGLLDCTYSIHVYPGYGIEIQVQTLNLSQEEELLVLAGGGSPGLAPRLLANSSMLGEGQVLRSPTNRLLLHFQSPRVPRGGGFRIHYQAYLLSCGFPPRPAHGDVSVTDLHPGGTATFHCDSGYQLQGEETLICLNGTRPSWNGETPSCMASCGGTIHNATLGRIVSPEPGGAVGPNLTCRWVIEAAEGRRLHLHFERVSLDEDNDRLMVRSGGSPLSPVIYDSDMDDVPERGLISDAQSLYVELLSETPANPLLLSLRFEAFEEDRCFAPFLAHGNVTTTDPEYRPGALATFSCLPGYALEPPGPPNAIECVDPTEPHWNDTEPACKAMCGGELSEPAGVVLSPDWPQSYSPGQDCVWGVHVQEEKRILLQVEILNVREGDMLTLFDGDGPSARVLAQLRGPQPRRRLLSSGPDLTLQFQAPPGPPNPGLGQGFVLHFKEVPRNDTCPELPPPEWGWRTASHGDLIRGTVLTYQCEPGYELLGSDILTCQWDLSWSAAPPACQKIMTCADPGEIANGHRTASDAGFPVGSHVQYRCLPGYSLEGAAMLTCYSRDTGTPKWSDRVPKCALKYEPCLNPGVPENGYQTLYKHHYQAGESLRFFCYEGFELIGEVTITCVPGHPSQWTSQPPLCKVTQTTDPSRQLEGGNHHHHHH
# [14] = biological target: T5, recombinant cynomolgus monkey SEZ6L2 (cynomolgus monkey, UniProt G7Q0V6 28-844); experiment: as above
# T5 construct: The construct is not described; also called cynomolgus monkey SEZL2
# [15] = biological target: T2, human SEZ6L on cells (293-SEZ6L); experiment: flow cytometry on live 293-SEZ6L cells, Alexa Fluor 488 anti-human IgG secondary [panel A]
# [16] = biological target: T1, human SEZ6 on cells (293-SEZ6); experiment: flow cytometry on live 293-SEZ6 cells, Alexa Fluor 488 anti-human IgG secondary [panel A]
binder,measurement,setting,value
"murine anti-SEZ6L2 antibody mu2E4 (antibody, V domains shown, Mouse hybridoma antibody) VH: EVKLVESGGVLVKPGGSLKLSCAASGFTFSKYAMSWVRQTPEKRLEWVATISSGGSYTYYPDSVKGRFTISRDNARNTLYLQMSSLRSEDTAIYYCTREGGYDEGYAMDYWGQGTTLTVS VL: DVVMTQTPLSLPVSLGDQASISCRSSQSLVHSYGNTYLHWYLQKPGQSPKLLIYKVSNRFSGVPDRFSGSGSGTDFTLKISRVEAEDLGVYFCSQSTHFRTFGGGTKLEIK",binding result,[1],binds
"human anti-SEZ6L2 antibody 3B6 (antibody, V domains shown, Fully human antibody from H2L2 mice) VH: QVQLVQSGAEVKKPGASVKVSCKASGYTFTAYYMHWVRQAPGQGLEWMGWINPNSGGTNYAQKFQGRVTMTRDTSIDTAYLDLSRLRSDDTAVYYCAKDSGYDWYFDIWGRGTLVTVSS VL: EIVLTQSPATLSLSPGERATLSCRASQNISSYLAWYQQKPGQAPRLLIYDASNRATGIPARFSGSGSGTDFTLTISSLEPEDFAVFYCQQHSNWPPLTFGGGTKVEIKR",binding result,[2],no binding (tested: 1 ug/ml)
same,binding result,[3],binds
same,binding result,[4],no binding (tested: 1 ug/ml)
"human anti-SEZ6L2 antibody 3B3 (antibody, V domains shown, Fully human antibody from H2L2 mice) VH: EVQLVESGGGLVQPGGSLRLSCAASGFTFSSYWMSWVRQAPGKGLEWVANIKQDGSEKYYVDSVKGRFTISRDNAKNSLYLQMNSLRAEDTAVYYCARGGGSYAFDYWGQGTLVTVSS VL: not shown",binding result,[5],binds
same,binding result,[6],no binding (tested: 1 ug/ml)
same,binding result,[7],no binding (tested: 1 ug/ml)
"human anti-SEZ6L2 antibody 3B1 (antibody, V domains shown, Fully human antibody from H2L2 mice) VH: QVQLVESGGGVVQPGRSLRLTCVVSGFAFSSYGMHWVRQAPGKGLEWVAVIWYDGSNKYYADSVKGRFTISRDNSKNTLYLQMNSLRAEDTAVYYCASLDYYGSGSRFDPWGQGTLVTVSS VL: not shown",binding result,[8],no binding (tested: 1 ug/ml)
same,binding result,[9],binds
same,binding result,[10],no binding (tested: 1 ug/ml)
"murine anti-SEZ6L2 antibody mu3E2 (antibody, V domains shown, Mouse hybridoma antibody) VH: EVLLVESGGRLVQPKGSLKLSCAASGFSFNTITMNWVRQAPGKGLEWVARIRSKSNNYATYYADAVKDRFTISRDDSQSMLYLQMNNLKTEDTAMYFCVRGIFSGYVYAMDYWGQGTTLTVSS VL: DVVMTQSPLSLPVSVGDQASISCRSSQSIVHSNGNTYLEWYLQKPGQSPKVLIYKVSNRFSGVPDRFSGSGSGTDFTLKISRVEAEDLGVYYCFQGSHVPYTFGGGTKLEIK",binding result,[1],binds
"humanized anti-SEZ6L2 antibody 2E4 (antibody, human IgG1, V domains shown, also called 2E4:4D2) VH: EVKLVESGGVLVKPGGSLRLSCAASGFTFSKYAMSWVRQAPGKGLEWVSTISSGGSYTYYPDSVKGRFTISRDNARNSLYLQMNSLRAEDTAIYYCTREGGYDEGYAMDYWGQGTTVTVSS VL: DIVMTQSPDSLAVSLGERATINCRSSQSLVHSYGNTYLHWYQQKPGQPPKLLIYKVSNRFSGVPDRFSGSGSGTDFTLTISSLQAEDVAVYFCSQSTHFRTFGGGTKVEIKR",binding result,[11],no binding (tested: 1 ug/ml)
same,binding result,[12],no binding (tested: 1 ug/ml)
same,Kd,[13],7 nM
same,Kd,[14],12 nM
"human anti-SEZ6L2 antibody 1A1 (antibody, V domains shown, Fully human antibody from H2L2 mice, expressed recombinantly; it was captured on Protein A and detected with anti-human IgG) VH: QVQLVQSGAEVKKPGASVKVSCKASGYTFTGYYMFWVRQAPGQGLEWLGWINPNSGGTDYAQKFQGRVTMTRDTSISTAYMELSRLRSDDTAVYYCARDSGYDWFFDYWGQGTLVTVSS VL: not shown",binding result,[15],no binding (tested: 1 ug/ml)
same,Kd,[13],1 nM
same,Kd,[14],1 nM
same,binding result,[16],no binding (tested: 1 ug/ml)
